Target: the molecule itself
Assay: nES GEMMA (gas-phase electrophoresis, nES DMA); BMntR alone at different concentrations, electrosprayed from 40 mM ammonium acetate pH 8.4; EM diameter 5.9 nm turned into a molecular weight by an EM diameter/MW correlation (34.6 kDa against 33.8 kDa theoretical for the dimer)

B1: MntR protein from B. subtilis (natural protein, Bacillus subtilis, UniProt P54512 1-142, looked up)
chain: MTTPSMEDYIEQIYMLIEEKGYARVSDIAEALAVHPSSVTKMVQKLDKDEYLIYEKYRGLVLTSKGKKIGKRLVYRHELLEQFLRIIGVDEEKIYNDVEGIEHHLSWNSIDRIGDLVQYFEEDDARKKDLKSIQKKTEHHNQ
notes: Manganese-dependent transcription factor MntR of Bacillus subtilis, UniProt P54512; Theoretical mass of the dimer printed as 33.8 kDa; also called BMntR; B. subtilis MntR protein; source: purified as before [3]
- stoichiometry N: 2

Source: publication PMC11416365, “Exploring the manganese-dependent interaction between a transcription factor and its corresponding DNA: insights from gas-phase electrophoresis on a nES GEMMA instrument” (Analytical and Bioanalytical Chemistry, 2024)
